B1: T22d35-Fc-IgG2-v2 (CC) (Fc fusion)
chain: IPPHVQKSVNNDMIVTDNNGAVKFPQLCKFCDVRFSTCDNQKSCMSNCSITSICEKPQEVCVAVWRKNDENITLETVCHDPKLPYHDFILEDAASPKCIMKEKKKPGETFFMCSCSSDECNDNIIFSEEYNTSNPDIPPHVQKSVNNDMIVTDNNGAVKFPQLCKFCDVRFSTCDNQKSCMSNCSITSICEKPQEVCVAVWRKNDENITLETVCHDPKLPYHDFILEDAASPKCIMKEKKKPGETFFMCSCSSDECNDNIIFSEEYNTSNPDVECPPCPAPPVAGPSVFLFPPKPKDTLMISRTPEVTCVVVDVSHEDPEVQFNWYVDGVEVHNAKTKPREEQFNSTFRVVSVLTVVHQDWLNGKEYKCKVSNKGLPAPIEKTISKTKGQPREPQVYTLPPSREEMTKNQVSLTCLVKGFYPSDISVEWESNGQPENNYKTTPPMLDSDGSFFLYSKLTVDKSRWQQGNVFSCSVMHEALHNHYTQKSLSLSPG
B2: T22d35-Fc fusion protein (TβRII-ECD doublet fused to the N-terminus of a human IgG2 Fc, hinge …) (Fc fusion)
chain: IPPHVQKSVNNDMIVTDNNGAVKFPQLCKFCDVRFSTCDNQKSCMSNCSITSICEKPQEVCVAVWRKNDENITLETVCHDPKLPYHDFILEDAASPKCIMKEKKKPGETFFMCSCSSDECNDNIIFSEEYNTSNPDIPPHVQKSVNNDMIVTDNNGAVKFPQLCKFCDVRFSTCDNQKSCMSNCSITSICEKPQEVCVAVWRKNDENITLETVCHDPKLPYHDFILEDAASPKCIMKEKKKPGETFFMCSCSSDECNDNIIFSEEYNTSNPDERKCCVECPPCPAPPVAGPSVFLFPPKPKDTLMISRTPEVTCVVVDVSHEDPEVQFNWYVDGVEVHNAKTKPREEQFNSTFRVVSVLTVVHQDWLNGKEYKCKVSNKGLPAPIEKTISKTKGQPREPQVYTLPPSREEMTKNQVSLTCLVKGFYPSDISVEWESNGQPENNYKTTPPMLDSDGSFFLYSKLTVDKSRWQQGNVFSCSVMHEALHNHYTQKSLSLSPG

What was measured:
Test in all cases: cell-based or functional assay
TGF-β1 = TGF-β1 (UniProt P01137)
Sequence of TGF-β1 (P01137 279-390 limits assumed): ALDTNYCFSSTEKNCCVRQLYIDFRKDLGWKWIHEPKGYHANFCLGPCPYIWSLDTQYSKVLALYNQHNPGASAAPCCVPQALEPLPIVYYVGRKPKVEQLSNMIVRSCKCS

TGF-β2 = target: T1, TGF-β2 (UniProt P61812)
T1 sequence (looked up): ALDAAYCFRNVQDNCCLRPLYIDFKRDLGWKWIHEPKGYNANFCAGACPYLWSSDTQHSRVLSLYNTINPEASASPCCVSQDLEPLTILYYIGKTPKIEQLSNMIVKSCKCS

TGF-β3 = TGF-β3 (UniProt P10600)
Sequence of TGF-β3 (P10600 301-412 limits assumed): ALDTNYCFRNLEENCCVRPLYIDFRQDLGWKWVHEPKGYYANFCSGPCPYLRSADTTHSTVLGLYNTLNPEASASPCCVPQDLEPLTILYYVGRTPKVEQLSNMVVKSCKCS

| Binder | IC50 (nM), neutralization of TGF-β1-induced IL-11 release by A549 cells (TGF-β1) [nM] | IC50 (nM), neutralization of TGF-β-induced IL-11 release by A549 cells (TGF-β1) [nM] | fold better neutralization potency than T2m-Fc (A549 IL-11 release assay) (TGF-β1) [fold] | fold better neutralization potency than T22d35 (A549 IL-11 release assay) (TGF-β1) [fold] | IC50 (nM), neutralization of TGF-β-induced IL-11 release by A549 cells (TGF-β2) [nM] | IC50 (nM), neutralization of TGF-β-induced IL-11 release by A549 cells (TGF-β3) [nM] | fold better neutralization potency than T2m-Fc (A549 IL-11 release assay) (TGF-β3) [fold] | fold better neutralization potency than T22d35 (A549 IL-11 release assay) (TGF-β3) [fold] |
| --- | --- | --- | --- | --- | --- | --- | --- | --- |
| B1 | 0.00278 |  |  |  |  |  |  |  |
| B2 | 0.00286 | 0.00335 | 615 | 970 | 10.6 | 0.00391 | 24 | 240 |
